Target: T1, 150 kDa C-terminal fragment of wild-type GAS57 (Streptococcus pyogenes (M1 SF370))
T1 construct: also called 150 kDa fragment; 150.5 kDa fragment
T1 chain: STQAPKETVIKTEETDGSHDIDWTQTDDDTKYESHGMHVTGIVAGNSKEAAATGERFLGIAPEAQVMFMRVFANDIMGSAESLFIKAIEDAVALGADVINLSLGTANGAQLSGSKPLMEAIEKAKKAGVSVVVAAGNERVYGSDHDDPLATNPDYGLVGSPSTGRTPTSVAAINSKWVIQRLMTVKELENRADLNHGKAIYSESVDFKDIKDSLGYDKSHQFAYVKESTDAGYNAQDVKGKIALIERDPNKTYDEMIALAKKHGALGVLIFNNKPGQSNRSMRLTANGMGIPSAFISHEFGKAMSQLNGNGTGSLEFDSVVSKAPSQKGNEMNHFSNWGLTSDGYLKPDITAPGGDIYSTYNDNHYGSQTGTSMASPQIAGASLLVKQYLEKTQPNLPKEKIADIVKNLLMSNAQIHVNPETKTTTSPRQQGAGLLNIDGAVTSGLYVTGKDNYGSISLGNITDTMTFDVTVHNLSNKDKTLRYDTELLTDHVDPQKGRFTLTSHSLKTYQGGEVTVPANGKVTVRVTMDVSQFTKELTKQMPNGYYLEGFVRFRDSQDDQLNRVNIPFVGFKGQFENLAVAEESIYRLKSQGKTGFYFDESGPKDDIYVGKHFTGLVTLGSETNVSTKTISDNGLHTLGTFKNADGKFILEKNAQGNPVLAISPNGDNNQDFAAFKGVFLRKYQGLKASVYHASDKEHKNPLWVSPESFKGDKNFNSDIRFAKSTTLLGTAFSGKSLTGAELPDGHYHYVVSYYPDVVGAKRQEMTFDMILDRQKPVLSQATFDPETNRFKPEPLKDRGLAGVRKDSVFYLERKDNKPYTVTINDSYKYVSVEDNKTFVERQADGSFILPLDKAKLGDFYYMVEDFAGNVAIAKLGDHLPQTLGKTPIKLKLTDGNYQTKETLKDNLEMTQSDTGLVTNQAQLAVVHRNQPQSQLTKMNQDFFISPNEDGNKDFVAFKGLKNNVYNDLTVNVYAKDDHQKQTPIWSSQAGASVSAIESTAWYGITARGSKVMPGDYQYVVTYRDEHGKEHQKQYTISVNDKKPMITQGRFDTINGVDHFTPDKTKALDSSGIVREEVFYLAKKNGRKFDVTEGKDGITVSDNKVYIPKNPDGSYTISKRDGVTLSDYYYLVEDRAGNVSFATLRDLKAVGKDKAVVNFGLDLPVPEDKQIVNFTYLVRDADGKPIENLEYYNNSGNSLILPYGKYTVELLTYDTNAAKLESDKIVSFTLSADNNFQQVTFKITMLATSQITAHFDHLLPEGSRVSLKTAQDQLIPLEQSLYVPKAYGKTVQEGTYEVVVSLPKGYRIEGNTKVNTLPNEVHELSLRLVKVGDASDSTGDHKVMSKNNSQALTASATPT
Experiment: co-purification on Ni-chelating affinity column and gel filtration; SDS-PAGE

B1: 23 kDa N-terminal fragment of wild-type GAS57 (other)
chain: ADELSTMSEPTITNHAQQQAQHLTNTELSSAESKSQDTSQITLKTNREKEQSQDLVSEPTTTELADTDAASMANTGSDATQKSASLPPVNTDVHDWVKTKGAWDKGYKGQGKVVAVIDTGIDPAHQSMRISDVSTAKVKSKEDMLARQKAAGINYGSWINDKVVFAHNYVENSDNIKENQFEDFDEDWENFEFDAEAEPKAIKKHKIYRPQ
notes: also called 23 kDa fragment; 23.4 kDa fragment
Q: Does B1 bind?
A: binds

— US20130202609A1 (Novartis, published 2013)
